Experimental findings from patent US20160272683A1 (Novo Nordisk, published 2016) are described below.

Numbered stars: 1 amine (or outer) side, 2 acyl side, 3 side chain; on linkers, the order of the positions; unused ones are H or OH. * marks the point of attachment. C20 diacid = O=C(O)CCCCCCCCCCCCCCCCCCC(=O)*; C18 diacid = O=C(O)CCCCCCCCCCCCCCCCC(=O)*; γGlu = O=C(O)[C@H](CCC(=O)[*:2])N[*:1]; AEEA = NCCOCCOCC(=O)O

Test [1] has as its target T1, human calcitonin receptor (human, UniProt P30988 25-474).
T1 construct: whole, on cells; Assay VII: membranes on SPA beads; also called hCT-R; hCTR
T1 sequence (looked up): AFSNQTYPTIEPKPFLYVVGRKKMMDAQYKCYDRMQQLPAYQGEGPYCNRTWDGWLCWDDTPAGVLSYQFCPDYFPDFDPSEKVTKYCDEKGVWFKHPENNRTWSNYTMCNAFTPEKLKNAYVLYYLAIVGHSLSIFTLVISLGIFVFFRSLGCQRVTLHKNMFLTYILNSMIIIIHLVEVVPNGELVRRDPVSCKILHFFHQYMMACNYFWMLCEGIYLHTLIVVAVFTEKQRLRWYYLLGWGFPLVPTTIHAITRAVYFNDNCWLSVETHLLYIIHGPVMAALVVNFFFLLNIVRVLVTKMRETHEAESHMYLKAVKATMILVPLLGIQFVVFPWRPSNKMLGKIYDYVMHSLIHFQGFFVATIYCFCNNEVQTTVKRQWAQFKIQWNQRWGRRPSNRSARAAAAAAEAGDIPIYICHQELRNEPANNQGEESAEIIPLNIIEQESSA
Nature of the test: SPA competition vs 125I-calcitonin, membranes with human CTR (Assay VII). An outline of the steps: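 SPA competition on membranes from BHK tk'ts 13 cells stably expressing human calcitonin receptor plus CRE-luciferase reporter; membranes 35 ng/μL final with 0.05 mg/well beads.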

Test [2] concerns the target T2, human amylin receptor (amylin 3(a) receptor: human calcitonin receptor with RAMP-3) (human, UniProt P30988 25-474; O60896 24-148, limits assumed).
T2 construct: whole, on cells; Assay V: membranes of the Amylin 3(a)/CRE-luc BHK cells on SPA beads; also called hAmylin-R
T2 sequence (looked up) 1: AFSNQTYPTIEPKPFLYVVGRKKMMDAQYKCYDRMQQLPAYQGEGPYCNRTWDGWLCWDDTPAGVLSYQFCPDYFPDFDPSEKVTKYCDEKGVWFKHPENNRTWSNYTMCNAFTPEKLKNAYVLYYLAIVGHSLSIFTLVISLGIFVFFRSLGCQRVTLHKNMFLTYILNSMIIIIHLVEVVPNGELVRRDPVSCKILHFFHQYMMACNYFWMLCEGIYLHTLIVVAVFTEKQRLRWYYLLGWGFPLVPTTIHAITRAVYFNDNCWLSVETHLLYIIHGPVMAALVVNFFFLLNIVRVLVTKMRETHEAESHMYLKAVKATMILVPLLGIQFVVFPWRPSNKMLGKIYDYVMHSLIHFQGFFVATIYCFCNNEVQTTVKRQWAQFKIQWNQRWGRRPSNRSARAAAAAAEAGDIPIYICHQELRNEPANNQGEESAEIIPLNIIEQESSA
T2 sequence (looked up) 2: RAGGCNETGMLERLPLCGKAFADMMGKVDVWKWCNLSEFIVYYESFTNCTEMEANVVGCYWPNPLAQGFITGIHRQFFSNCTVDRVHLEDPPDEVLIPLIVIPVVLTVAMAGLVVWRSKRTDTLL
Nature of the test: SPA competition vs 125I-rat amylin, membranes with human CTR + RAMP-3 (Assay V).

B1: [N-terminal(C20 diacid-gGlu-2xOEG), des1, 4G, 9V, 15Q, 21Q, 23Y, 30S, 31G, 32T, 33Y]mimylin (peptide)
peptide: {C20 diacid-γGlu-AEEA-AEEA}-ASGLSTAVLGRLSQELHELQTYPRTETGSGTY-NH2
SMILES: CC(C)C[C@H](NC(=O)CNC(=O)[C@H](CO)NC(=O)[C@H](C)NC(=O)COCCOCCNC(=O)COCCOCCNC(=O)CC[C@H](NC(=O)CCCCCCCCCCCCCCCCCCC(=O)O)C(=O)O)C(=O)N[C@@H](CO)C(=O)N[C@H](C(=O)N[C@@H](C)C(=O)N[C@H](C(=O)N[C@@H](CC(C)C)C(=O)NCC(=O)N[C@@H](CCCNC(=N)N)C(=O)N[C@@H](CC(C)C)C(=O)N[C@@H](CO)C(=O)N[C@@H](CCC(N)=O)C(=O)N[C@@H](CCC(=O)O)C(=O)N[C@@H](CC(C)C)C(=O)N[C@@H](Cc1c[nH]cn1)C(=O)N[C@@H](CCC(=O)O)C(=O)N[C@@H](CC(C)C)C(=O)N[C@@H](CCC(N)=O)C(=O)N[C@H](C(=O)N[C@@H](Cc1ccc(O)cc1)C(=O)N1CCC[C@H]1C(=O)N[C@@H](CCCNC(=N)N)C(=O)N[C@H](C(=O)N[C@@H](CCC(=O)O)C(=O)N[C@H](C(=O)NCC(=O)N[C@@H](CO)C(=O)NCC(=O)N[C@H](C(=O)N[C@@H](Cc1ccc(O)cc1)C(N)=O)[C@@H](C)O)[C@@H](C)O)[C@@H](C)O)[C@@H](C)O)C(C)C)[C@@H](C)O
notes: mimylin derivative; des1 = residue 1 deleted; also called Ex. #120; 120
Regarding B1, the IC50 in test [1] turned out to be 0.091 nM; in test [2], 0.166 nM.

B2: [N-terminal(C20 diacid-gGlu), des1, 4G, 8L, 9V, 15Q, 21Q, 23Y, 30S, 31Q, 32T, 33Y]mimylin (peptide)
peptide: {C20 diacid-γGlu}-ASGLSTLVLGRLSQELHELQTYPRTETGSQTY-NH2
SMILES: CC(C)C[C@H](NC(=O)CNC(=O)[C@H](CO)NC(=O)[C@H](C)NC(=O)CC[C@H](NC(=O)CCCCCCCCCCCCCCCCCCC(=O)O)C(=O)O)C(=O)N[C@@H](CO)C(=O)N[C@H](C(=O)N[C@@H](CC(C)C)C(=O)N[C@H](C(=O)N[C@@H](CC(C)C)C(=O)NCC(=O)N[C@@H](CCCNC(=N)N)C(=O)N[C@@H](CC(C)C)C(=O)N[C@@H](CO)C(=O)N[C@@H](CCC(N)=O)C(=O)N[C@@H](CCC(=O)O)C(=O)N[C@@H](CC(C)C)C(=O)N[C@@H](Cc1c[nH]cn1)C(=O)N[C@@H](CCC(=O)O)C(=O)N[C@@H](CC(C)C)C(=O)N[C@@H](CCC(N)=O)C(=O)N[C@H](C(=O)N[C@@H](Cc1ccc(O)cc1)C(=O)N1CCC[C@H]1C(=O)N[C@@H](CCCNC(=N)N)C(=O)N[C@H](C(=O)N[C@@H](CCC(=O)O)C(=O)N[C@H](C(=O)NCC(=O)N[C@@H](CO)C(=O)N[C@@H](CCC(N)=O)C(=O)N[C@H](C(=O)N[C@@H](Cc1ccc(O)cc1)C(N)=O)[C@@H](C)O)[C@@H](C)O)[C@@H](C)O)[C@@H](C)O)C(C)C)[C@@H](C)O
notes: mimylin derivative; des1 = residue 1 deleted
B2: the results for the IC50 in test [1] and in test [2] were 0.193 nM and 0.225 nM, respectively.

B3: [N-terminal(C18 diacid-gGlu), des1, 4G, 15Q, 21Q, 23Y, 30S, 31G, 32T, 33Y]mimylin (peptide)
peptide: {C18 diacid-γGlu}-ASGLSTAALGRLSQELHELQTYPRTETGSGTY-NH2
SMILES: CC(C)C[C@H](NC(=O)CNC(=O)[C@H](CO)NC(=O)[C@H](C)NC(=O)CC[C@H](NC(=O)CCCCCCCCCCCCCCCCC(=O)O)C(=O)O)C(=O)N[C@@H](CO)C(=O)N[C@H](C(=O)N[C@@H](C)C(=O)N[C@@H](C)C(=O)N[C@@H](CC(C)C)C(=O)NCC(=O)N[C@@H](CCCNC(=N)N)C(=O)N[C@@H](CC(C)C)C(=O)N[C@@H](CO)C(=O)N[C@@H](CCC(N)=O)C(=O)N[C@@H](CCC(=O)O)C(=O)N[C@@H](CC(C)C)C(=O)N[C@@H](Cc1c[nH]cn1)C(=O)N[C@@H](CCC(=O)O)C(=O)N[C@@H](CC(C)C)C(=O)N[C@@H](CCC(N)=O)C(=O)N[C@H](C(=O)N[C@@H](Cc1ccc(O)cc1)C(=O)N1CCC[C@H]1C(=O)N[C@@H](CCCNC(=N)N)C(=O)N[C@H](C(=O)N[C@@H](CCC(=O)O)C(=O)N[C@H](C(=O)NCC(=O)N[C@@H](CO)C(=O)NCC(=O)N[C@H](C(=O)N[C@@H](Cc1ccc(O)cc1)C(N)=O)[C@@H](C)O)[C@@H](C)O)[C@@H](C)O)[C@@H](C)O)[C@@H](C)O
notes: mimylin derivative; des1 = residue 1 deleted; also called Ex. #110; 110
As to B3, the results for the IC50 in test [1] and in test [2] were 0.057 nM and 0.122 nM, respectively.

B4: [N-terminal(C20 diacid-gGlu), des1, 4G, 9V, 12K, 15Q, 21Q, 23Y, 25P, 30S, 31G, 32T, 33Y]mimylin (peptide)
peptide: {C20 diacid-γGlu}-ASGLSTAVLGKLSQELHELQTYPPTETGSGTY-NH2
SMILES: CC(C)C[C@H](NC(=O)CNC(=O)[C@H](CO)NC(=O)[C@H](C)NC(=O)CC[C@H](NC(=O)CCCCCCCCCCCCCCCCCCC(=O)O)C(=O)O)C(=O)N[C@@H](CO)C(=O)N[C@H](C(=O)N[C@@H](C)C(=O)N[C@H](C(=O)N[C@@H](CC(C)C)C(=O)NCC(=O)N[C@@H](CCCCN)C(=O)N[C@@H](CC(C)C)C(=O)N[C@@H](CO)C(=O)N[C@@H](CCC(N)=O)C(=O)N[C@@H](CCC(=O)O)C(=O)N[C@@H](CC(C)C)C(=O)N[C@@H](Cc1c[nH]cn1)C(=O)N[C@@H](CCC(=O)O)C(=O)N[C@@H](CC(C)C)C(=O)N[C@@H](CCC(N)=O)C(=O)N[C@H](C(=O)N[C@@H](Cc1ccc(O)cc1)C(=O)N1CCC[C@H]1C(=O)N1CCC[C@H]1C(=O)N[C@H](C(=O)N[C@@H](CCC(=O)O)C(=O)N[C@H](C(=O)NCC(=O)N[C@@H](CO)C(=O)NCC(=O)N[C@H](C(=O)N[C@@H](Cc1ccc(O)cc1)C(N)=O)[C@@H](C)O)[C@@H](C)O)[C@@H](C)O)[C@@H](C)O)C(C)C)[C@@H](C)O
notes: as for B2
Turning to B4, the IC50 in test [1] is 0.651 nM; in test [2], 0.72 nM.

B5: [N-terminal(C20 diacid-gGlu), des1, 4G, 9T, 15Q, 21Q, 23Y, 25P, 30S, 31G, 32T, 33Y]mimylin (peptide)
peptide: {C20 diacid-γGlu}-ASGLSTATLGRLSQELHELQTYPPTETGSGTY-NH2
SMILES: CC(C)C[C@H](NC(=O)CNC(=O)[C@H](CO)NC(=O)[C@H](C)NC(=O)CC[C@H](NC(=O)CCCCCCCCCCCCCCCCCCC(=O)O)C(=O)O)C(=O)N[C@@H](CO)C(=O)N[C@H](C(=O)N[C@@H](C)C(=O)N[C@H](C(=O)N[C@@H](CC(C)C)C(=O)NCC(=O)N[C@@H](CCCNC(=N)N)C(=O)N[C@@H](CC(C)C)C(=O)N[C@@H](CO)C(=O)N[C@@H](CCC(N)=O)C(=O)N[C@@H](CCC(=O)O)C(=O)N[C@@H](CC(C)C)C(=O)N[C@@H](Cc1c[nH]cn1)C(=O)N[C@@H](CCC(=O)O)C(=O)N[C@@H](CC(C)C)C(=O)N[C@@H](CCC(N)=O)C(=O)N[C@H](C(=O)N[C@@H](Cc1ccc(O)cc1)C(=O)N1CCC[C@H]1C(=O)N1CCC[C@H]1C(=O)N[C@H](C(=O)N[C@@H](CCC(=O)O)C(=O)N[C@H](C(=O)NCC(=O)N[C@@H](CO)C(=O)NCC(=O)N[C@H](C(=O)N[C@@H](Cc1ccc(O)cc1)C(N)=O)[C@@H](C)O)[C@@H](C)O)[C@@H](C)O)[C@@H](C)O)[C@@H](C)O)[C@@H](C)O
notes: as for B2
As to B5, the IC50 in test [1] was determined as 0.053 nM; in test [2], 0.216 nM.
